The experiment addresses receptors on glutaraldehyde-fixed HeLa cells. The experiment can be described thus: competition ligand assay on fixed HeLa cells; 100 µg E. coli lysate (F11.2 cDNA); competitor: ^35 S-labeled trichomonad AP65; densitometry of fluorograms.

On to “recombinant AP65-1 adhesin expressed in E. coli from cDNA clone F11.2 (ligand)”, for which the percent decrease of parasite AP65 binding was found to be 55%.

The record behind these values is patent US5922563.
